Assay results reported in IntAct's records for PubMed 22791719.

B1: Phospholipid-transporting ATPase accessory subunit LEM3 (Saccharomyces cerevisiae), P42838 (parent)
chain: MVNFDLGQVGEVFRRKDKGAIVSGDNPEEEEDVDASEFEEDEVKPVRTKNRRPKEDAFTQQRLAAINPVLTPRTVLPLYLLIAVVFVIVGGCILAQNSKVDEVTIYYQDCMTNATSSWSDIPSEHWQFVFHKYKTYNTAPQWRFVDDESDDFTKQRGTCQIRFTTPSDMKNNVYLNYVLEKFAANHRRYVLSFSEDQIRGEDASYETVHDATGINCKPLSKNADGKIYYPCGLIANSMFNDTFPLQLTNVGDTSNNYSLTNKGINWESDKKRYKKTKYNYTQIAPPPYWEKMYPDGYNETNIPDIQDWEEFQNWMRPGAFDKITKLIRINKNDTLPAGEYQLDIGLHWPVLEFNGKKGIYLTHGSHLGGRNPFLGIVYLIGGCICAAMALILLTFWLFGGRKIADASSLSWNMK
B2: Phospholipid-transporting ATPase DRS2 (Saccharomyces cerevisiae), P39524 (parent)
chain: MNDDRETPPKRKPGEDDTLFDIDFLDDTTSHSGSRSKVTNSHANANYIPPSHVLPEETIDLDADDDNIENDVHENLFMSNNHDDQTSWNANRFDSDAYQPQSLRAVKPPGLFARFGNGLKNAFTFKRKKGPESFEMNHYNAVTNNELDDNYLDSRNKFNIKILFNRYILRKNVGDAEGNGEPRVIHINDSLANSSFGYSDNHISTTKYNFATFLPKFLFQEFSKYANLFFLCTSAIQQVPHVSPTNRYTTIGTLLVVLIVSAMKECIEDIKRANSDKELNNSTAEIFSEAHDDFVEKRWIDIRVGDIIRVKSEEPIPADTIILSSSEPEGLCYIETANLDGETNLKIKQSRVETAKFIDVKTLKNMNGKVVSEQPNSSLYTYEGTMTLNDRQIPLSPDQMILRGATLRNTAWIFGLVIFTGHETKLLRNATATPIKRTAVEKIINRQIIALFTVLIVLILISSIGNVIMSTADAKHLSYLYLEGTNKAGLFFKDFLTFWILFSNLVPISLFVTVELIKYYQAFMIGSDLDLYYEKTDTPTVVRTSSLVEELGQIEYIFSDKTGTLTRNIMEFKSCSIAGHCYIDKIPEDKTATVEDGIEVGYRKFDDLKKKLNDPSDEDSPIINDFLTLLATCHTVIPEFQSDGSIKYQAASPDEGALVQGGADLGYKFIIRKPNSVTVLLEETGEEKEYQLLNICEFNSTRKRMSAIFRFPDGSIKLFCKGADTVILERLDDEANQYVEATMRHLEDYASEGLRTLCLAMRDISEGEYEEWNSIYNEAATTLDNRAEKLDEAANLIEKNLILIGATAIEDKLQDGVPETIHTLQEAGIKIWVLTGDRQETAINIGMSCRLLSEDMNLLIINEETRDDTERNLLEKINALNEHQLSTHDMNTLALVIDGKSLGFALEPELEDYLLTVAKLCKAVICCRVSPLQKALVVKMVKRKSSSLLLAIGDGANDVSMIQAAHVGVGISGMEGMQAARSADIAVGQFKFLKKLLLVHGSWSYQRISVAILYSFYKNTALYMTQFWYVFANAFSGQSIMESWTMSFYNLFFTVWPPFVIGVFDQFVSSRLLERYPQLYKLGQKGQFFSVYIFWGWIINGFFHSAIVFIGTILIYRYGFALNMHGELADHWSWGVTVYTTSVIIVLGKAALVTNQWTKFTLIAIPGSLLFWLIFFPIYASIFPHANISREYYGVVKHTYGSGVFWLTLIVLPIFALVRDFLWKYYKRMYEPETYHVIQEMQKYNISDSRPHVQQFQNAIRKVRQVQRMKKQRGFAFSQAEEGGQEKIVRMYDTTQKRGKYGELQDASANPFNDNNGLGSNDFESAEPFIENPFADGNQNSNRFSSSRDDISFDI
partner: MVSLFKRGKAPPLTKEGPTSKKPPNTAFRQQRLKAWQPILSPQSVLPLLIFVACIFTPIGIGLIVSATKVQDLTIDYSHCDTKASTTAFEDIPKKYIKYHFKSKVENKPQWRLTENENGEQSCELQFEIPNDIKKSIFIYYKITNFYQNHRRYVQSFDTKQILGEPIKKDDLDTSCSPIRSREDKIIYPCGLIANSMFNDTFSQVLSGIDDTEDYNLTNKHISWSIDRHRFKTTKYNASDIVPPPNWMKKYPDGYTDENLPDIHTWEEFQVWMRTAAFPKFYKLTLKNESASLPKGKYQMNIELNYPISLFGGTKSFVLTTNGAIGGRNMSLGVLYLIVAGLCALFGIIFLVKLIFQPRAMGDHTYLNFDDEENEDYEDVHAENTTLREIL

Variants of: B1
Details: with atc5_yeast DNF1, P32660
Chain of atc5_yeast DNF1, P32660 (P32660 whole entry): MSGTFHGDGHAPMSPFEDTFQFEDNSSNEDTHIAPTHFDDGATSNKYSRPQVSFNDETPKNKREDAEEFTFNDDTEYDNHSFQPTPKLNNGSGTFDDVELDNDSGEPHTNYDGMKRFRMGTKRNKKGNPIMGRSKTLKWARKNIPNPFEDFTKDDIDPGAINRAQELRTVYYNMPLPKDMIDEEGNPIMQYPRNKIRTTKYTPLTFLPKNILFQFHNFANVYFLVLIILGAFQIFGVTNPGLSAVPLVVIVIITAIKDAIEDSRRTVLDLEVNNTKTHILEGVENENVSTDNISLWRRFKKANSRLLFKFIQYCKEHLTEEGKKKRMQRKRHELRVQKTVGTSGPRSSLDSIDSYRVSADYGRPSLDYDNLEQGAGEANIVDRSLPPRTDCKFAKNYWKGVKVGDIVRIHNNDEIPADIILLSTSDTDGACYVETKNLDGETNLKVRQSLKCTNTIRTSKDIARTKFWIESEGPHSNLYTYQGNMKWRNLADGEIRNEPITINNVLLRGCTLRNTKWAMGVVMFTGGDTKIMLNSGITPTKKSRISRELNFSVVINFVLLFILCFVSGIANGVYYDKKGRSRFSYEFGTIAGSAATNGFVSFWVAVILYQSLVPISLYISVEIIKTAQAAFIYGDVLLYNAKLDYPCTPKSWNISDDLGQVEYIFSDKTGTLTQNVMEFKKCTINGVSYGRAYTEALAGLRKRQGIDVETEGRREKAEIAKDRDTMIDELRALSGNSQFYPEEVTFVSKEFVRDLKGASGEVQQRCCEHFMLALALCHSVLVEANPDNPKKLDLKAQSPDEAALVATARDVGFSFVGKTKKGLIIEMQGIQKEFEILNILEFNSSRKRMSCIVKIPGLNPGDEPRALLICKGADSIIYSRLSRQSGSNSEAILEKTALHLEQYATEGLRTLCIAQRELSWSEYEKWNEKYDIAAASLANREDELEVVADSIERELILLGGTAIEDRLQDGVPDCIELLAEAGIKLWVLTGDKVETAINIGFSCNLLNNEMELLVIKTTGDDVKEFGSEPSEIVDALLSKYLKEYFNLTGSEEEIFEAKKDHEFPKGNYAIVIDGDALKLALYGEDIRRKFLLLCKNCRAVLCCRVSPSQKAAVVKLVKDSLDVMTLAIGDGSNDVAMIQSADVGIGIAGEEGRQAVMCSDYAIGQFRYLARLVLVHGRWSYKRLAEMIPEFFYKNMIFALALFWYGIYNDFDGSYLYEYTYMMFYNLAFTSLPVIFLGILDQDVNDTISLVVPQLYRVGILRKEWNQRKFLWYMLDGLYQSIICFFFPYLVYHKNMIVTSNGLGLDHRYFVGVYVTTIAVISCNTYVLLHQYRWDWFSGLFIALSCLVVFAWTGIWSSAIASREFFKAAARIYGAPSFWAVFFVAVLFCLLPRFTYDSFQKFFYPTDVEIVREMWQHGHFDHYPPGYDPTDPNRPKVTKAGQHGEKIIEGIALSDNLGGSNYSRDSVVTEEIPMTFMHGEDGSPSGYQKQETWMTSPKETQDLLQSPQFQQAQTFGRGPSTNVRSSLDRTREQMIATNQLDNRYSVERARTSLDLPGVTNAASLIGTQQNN

| Variant | effect of a mutation on the interaction |
| --- | --- |
| MVNFDLGQVGEVFRRKDKGAIVSGDNPEEEEDVDASEFEEDEVKPVRTKNRRPKEDAFTQQRLAVINPVLTPRTVLPLYLLIAVVFVIVGGCILAQNSKVDEVTIYYQDCMTNATSSWSDIPSEHWQFVFHKYKTYNTAPQWRFVDDESDDFTKQRGTCQIRFTTPSDMKNNVYLNYVLEKFAANHRRYVLSFSEDQIRGEDASYETVHDATGINCKPLSKNADGKIYYPCGLIANSMFNDTFPLQLTNVGDTSNNYSLTNKGINWESDKKRYKKTKYNYTQIAPPPYWEKMYPDGYNETNIPDIQDWEEFQNWMRPGAFDKITKLIRINKNDTLPAGEYQLDIGLHWPVLEFNGKKGIYLTHGSHLGGRNPFLGIVYLIGGCICAAMALILLTFWLFGGRKIADASSLSWNMK [A65V] | decreasing interaction strength |

Variants of: B1
Details: with atc5_yeast DNF1, P32660
Remark: another data set of the same source

| Variant | effect of a mutation on the interaction |
| --- | --- |
| MVNFDLGQVGEVFRRKDKGAIVSGDNPEEEEDVDASEFEEDEVKPVRTKNRRPKEDAFTQQRLAAINPVLTPRTVLPLYLLIAVVFVIVGGCILAQNSKVDEVTIYYQDCMTNATSSWSDIPSEHWQFVFHKYKTYNTAPQWRFVDDESDDFTKQRGTAQIRFTTPSDMKNNVYLNYVLEKFAANHRRYVLSFSEDQIRGEDASYETVHDATGINCKPLSKNADGKIYYPCGLIANSMFNDTFPLQLTNVGDTSNNYSLTNKGINWESDKKRYKKTKYNYTQIAPPPYWEKMYPDGYNETNIPDIQDWEEFQNWMRPGAFDKITKLIRINKNDTLPAGEYQLDIGLHWPVLEFNGKKGIYLTHGSHLGGRNPFLGIVYLIGGCICAAMALILLTFWLFGGRKIADASSLSWNMK [C159A] | disrupting interaction strength |
| MVNFDLGQVGEVFRRKDKGAIVSGDNPEEEEDVDASEFEEDEVKPVRTKNRRPKEDAFTQQRLAAINPVLTPRTVLPLYLLIAVVFVIVGGCILAQNSKVDEVTIYYQDCMTNATSSWSDIPSEHWQFVFHKYKTYNTAPQWRFVDDESDDFTKQRGTCQIRFTTPSDMKNNVYLNYVLEKFAANHRRYVLSFSEDQIRGEDASYETVHDATGINCKPLSKNADGKIYYPAGLIANSMFNDTFPLQLTNVGDTSNNYSLTNKGINWESDKKRYKKTKYNYTQIAPPPYWEKMYPDGYNETNIPDIQDWEEFQNWMRPGAFDKITKLIRINKNDTLPAGEYQLDIGLHWPVLEFNGKKGIYLTHGSHLGGRNPFLGIVYLIGGCICAAMALILLTFWLFGGRKIADASSLSWNMK [C231A] | decreasing interaction strength |
| MVNFDLGQVGEVFRRKDKGAIVSGDNPEEEEDVDASEFEEDEVKPVRTKNRRPKEDAFTQQRLAAINPVLTPRTVLPLYLLIAVVFVIVGGCILAQNSKVDEVTIYYQDCMTNATSSWSDIPSEHWQFVFHKYKTYNTAPQWRFVDDESDDFTKQRGTCQIRFTTPSDMKNNVYLNYVLEKFAANHRRYVLSFSEDQIRGEDASYETVHDATGINCKPLSKNADGKIYYPCGLIANSMFNDTFPLQLTNVGDTSNNYSLTNKGINWESDKKRYKKTKYNYTQIAPPPYWEKMYPDGYNETNIPDIQDWEEFQNWMRPGAFDKITKLIRINKNDTLPAGEYQLDIGLHWPVLEFNGKKGIYLTHGSHLGGRNPFLGIVYLIGGCICAAMALILLTFWLFGGRKIVDASSLSWNMK [A404V] | disrupting interaction strength |
| MVNFDLGQVGEVFRRKDKGAIVSGDNPEEEEDVDASEFEEDEVKPVRTKNRRPKEDAFTQQRLAAINPVLTPRTVLPLYLLIAVVFVIVGGCILAQNSKVDEVTIYYQDCMTNATSSWSDIPSEHWQFVFHKYKTYNTAPQWRFVDDESDDFTKQRGTCQIRFTTPSDMKNNVYLNYVLEKFAANHRRYVLSFSEDQIRGEDASYETVHDATGINAKPLSKNADGKIYYPCGLIANSMFNDTFPLQLTNVGDTSNNYSLTNKGINWESDKKRYKKTKYNYTQIAPPPYWEKMYPDGYNETNIPDIQDWEEFQNWMRPGAFDKITKLIRINKNDTLPAGEYQLDIGLHWPVLEFNGKKGIYLTHGSHLGGRNPFLGIVYLIGGCICAAMALILLTFWLFGGRKIADASSLSWNMK [C216A] | disrupting interaction strength |
| MVNFDLGQVGEVFRRKDKGAIVSGDNPEEEEDVDASEFEEDEVKPVRTKNRRPKEDAFTQQRLAAINPVLTPRTVLPLYLLIAVVFVIVGGCILAQNSKVDEVTIYYQDCMTNATSSWSDIPSEHWQFVFHKYKTYNTAPQWRFVDDESDDFTKQRGTCQIRFTTPSDMKNNVYLNYVLEKFAANHRRYVLSFSEDQIRGEDASYETVHDATGINCKPLSKNADGKIYYPCGLIANLMFNDTFPLQLTNVGDTSNNYSLTNKGINWESDKKRYKKTKYNYTQIAPPPYWEKMYPDGYNETNIPDIQDWEEFQNWMRPGAFDKITKLIRINKNDTLPAGEYQLDIGLHWPVLEFNGKKGIYLTHGSHLGGRNPFLGIVYLIGGCICAAMALILLTFWLFGGRKIADASSLSWNMK [S237L] | disrupting interaction strength |

Variants of: B2
Details: with cdc50_yeast CDC50, P25656

| Variant | effect of a mutation on the interaction |
| --- | --- |
| G341L | disrupting interaction strength |
| D560N | disrupting interaction strength |
| E342Q | with no effect |
